Measurements published in patent US20080105961A1, “Ligands of the Molecule Fit (Agt-121) and their Pharmaceutical Use” (priority 2004, published 2008).

Key:
[1] = target: T1, FIT-NP (FIT N-terminal plus proline-rich region) (Homo sapiens, UniProt Q9BQI5); experiment: Yeast two-hybrid screen of human brain cDNA library, bait FIT-NP; assay type: binding; conditions: bait FIT-NP, human brain cDNA library; clones listed highest to lowest interacting strength
T1 construct: expressed in transfected cells
T1 sequence (Q9BQI5 with tags, fused parts or gaps I33M/P40L/N43H/V56A/I186T/P191L/T195L/E211G/Q212H/I230V/T240A/N255T/I269V/G270A/P271T/S276A/V280A/L285P/N289S/A308T/K311T/T318A/S335T/T339A/P340S/N342I/A348T/L352P/P357S/T358A/DEL367-367/L371P/I397L/D402E/F403C/A409E/P432S/P434T/T437A/R454S/S455C/T456S): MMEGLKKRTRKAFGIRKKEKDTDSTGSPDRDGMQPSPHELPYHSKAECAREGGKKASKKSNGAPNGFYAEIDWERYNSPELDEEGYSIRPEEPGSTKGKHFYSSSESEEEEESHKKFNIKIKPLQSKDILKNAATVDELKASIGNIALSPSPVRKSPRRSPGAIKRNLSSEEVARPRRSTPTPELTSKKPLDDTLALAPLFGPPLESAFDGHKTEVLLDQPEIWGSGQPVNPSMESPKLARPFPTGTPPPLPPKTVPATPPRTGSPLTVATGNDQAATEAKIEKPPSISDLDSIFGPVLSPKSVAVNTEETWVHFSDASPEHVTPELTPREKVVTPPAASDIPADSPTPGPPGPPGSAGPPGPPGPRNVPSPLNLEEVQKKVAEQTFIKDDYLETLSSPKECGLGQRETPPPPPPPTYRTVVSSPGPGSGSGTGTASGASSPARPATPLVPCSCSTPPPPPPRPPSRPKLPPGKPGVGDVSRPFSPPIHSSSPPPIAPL
Source text: (§1) In order to perform these experiments, two truncated fragments of FIT were constructed to be used as baits in a yeast two-hybrid screen of a human brain cDNA library: one bait consisting of the N-terminal region plus the central proline-rich region, and the other bait consisting of the central proline-rich region alone. The inventors utilised a yeast two-hybrid system which incorporates modifications by Chevray and Nathans (1992), and Vidal et al. (1996) to screen a human brain cDNA library. FIT fragments were PCR amplified, purified and then cloned into an appropriate vector. Sense oligonucleotides for FIT-NP (5′-[…]-3′: SEQ ID NO:72), and FIT-PR (5′-[…]-3′: SEQ ID NO:73), with Sal1 restriction enzyme sites underlined, were used in conjunction with a common antisense oligonucleotide (5′-[…]-3′: SEQ ID NO:74), with the Not1 restriction enzyme site underlined.
(§2) Human brain cDNA inserts were prepared and cloned into the expression vector according to manufacturer's instructions.

[2] = target: T2, FIT-PR (FIT proline-rich region) (Homo sapiens, UniProt Q9BQI5); experiment: Yeast two-hybrid screen of human brain cDNA library, bait FIT-PR; assay type: binding; conditions: clones listed highest to lowest interacting strength
T2 construct: expressed in transfected cells
T2 sequence (Q9BQI5 with tags, fused parts or gaps N255T/I269V/G270A/P271T/S276A/V280A/L285P/N289S/A308T/K311T/T318A/S335T/T339A/P340S/N342I/A348T/L352P/P357S/T358A/DEL367-367/L371P/I397L/D402E/F403C/P432S/P434T/T437A/R454S/S455C/T456S): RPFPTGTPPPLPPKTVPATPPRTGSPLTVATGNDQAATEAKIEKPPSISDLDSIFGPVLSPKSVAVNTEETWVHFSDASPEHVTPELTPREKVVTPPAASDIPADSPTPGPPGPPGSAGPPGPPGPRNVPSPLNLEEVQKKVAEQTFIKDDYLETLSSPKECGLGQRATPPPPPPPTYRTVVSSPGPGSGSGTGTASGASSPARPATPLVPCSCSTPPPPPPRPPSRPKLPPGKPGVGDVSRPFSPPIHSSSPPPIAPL
Source text: as §1, with “To investigate the mechanism by which FIT regulates energy balance, neural proteins that interact with FIT were identified. In” for “In”
as §2

Number of clones [1]: 10 | Number of clones [2]: 1
B1: Homo sapiens regulatory factor X, 2 (RFX2): FIT interacting protein isolated from a human brain cDNA library (protein)
chain: MQNSEGGADSPASVALRPSAAAPPVPASPQRVLVQAASSNPKGAQMQPISLPRVQQVPQQVQPVQHVYPAQVQYVEGGDAVYTNGAIRTAYTYNPEPQMYAPSSTASYFEAPGGAQVTVAASSPPAVPSHSMVGITMDVGGSPIVSSAGAYLIHGGMDSTRHSLAHTSRSSPATLEMAIENLQKSEGITSHKSGLLNSHLQWLLDNYETAEGVSLPRSSLYNHYLRHCQEHKLDPVNAASFGKLIRSVFMGLRTRRLGTRGNSKYHYYGIRLKPDSPLNRLQEDTQYMAMRQQPMHQKPRYRPAQKTDSLGDSGSHSGLHSTPEQTMAVQSQHHQQYIDVSHVFPEFPAPDLGSFLLQDGVTLHDVKALQLVYRRHCEATVDVVMNLQFHYIEKLWLSFWNSKASSSDGPTSLPASDEDPEGAVLPKDKLISLCQCDPILRWMRSCDHILYQALVEILIPDVLRPVPSTLTQAIRNFAKSLEGWLTNAMSDFPQQVIQTKVGVVSAFAQTLRRYTSLNHLAQAARAVLQNTSQINQMLSDLNRVDFANVQEQASWVCQCEESVVQRLEQDFKLTLQQQSSLDQWASWLDSVVTQVLKQHAGSPSFPKAARQFLLKWSFYSSMVIRDLTLRSAASFGSFHLIRLLYDEYMFYLVEHRVAEATGETPIAVMGEFNDLASLSLTLLDKDDMGDEQRGSEAGPDARSLGEPLVKRERSDPNHSLQGI
modifications: left off: large carriers
